Data taken from PMC4209802.
Like-named read-outs stand apart in the source and are kept apart here.

Tests used:
Assay in all cases: FRET or BRET
OT-I TCR vβ5 chain [1] = target: OT-I TCR vβ5 chain
P14 TCR vβ8 chain [2] = target: P14 TCR vβ8 chain
OT-I TCR vβ5 chain [3] = target: OT-I TCR vβ5 chain; remark: listed apart in the source
P14 TCR vβ8 chain [4] = target: P14 TCR vβ8 chain; remark: listed apart in the source
P14 TCR vβ8 chain [5] = target: P14 TCR vβ8 chain; remark: listed apart in the source
OT-I TCR vβ5 chain [6] = target: OT-I TCR vβ5 chain; remark: listed apart in the source
P14 TCR vβ8 chain [7] = target: P14 TCR vβ8 chain; remark: listed apart in the source
P14 TCR vβ8 chain [8] = target: P14 TCR vβ8 chain; remark: listed apart in the source
P14 TCR vβ8 chain [9] = target: P14 TCR vβ8 chain; remark: listed apart in the source
OT-I TCR vβ5 chain [10] = target: OT-I TCR vβ5 chain; remark: listed apart in the source
P14 TCR vβ8 chain [11] = target: P14 TCR vβ8 chain; remark: listed apart in the source

Row | Substance | FRET efficiency (OT-I TCR vβ5 chain [1]) [%] | FRET efficiency (P14 TCR vβ8 chain [2]) [%] | FRET efficiency (OT-I TCR vβ5 chain [3]) [%] | FRET efficiency (P14 TCR vβ8 chain [4]) [%] | FRET efficiency (P14 TCR vβ8 chain [5]) [%] | FRET efficiency (OT-I TCR vβ5 chain [6]) [%] | FRET efficiency (P14 TCR vβ8 chain [7]) [%] | FRET efficiency (P14 TCR vβ8 chain [8]) [%] | FRET efficiency (P14 TCR vβ8 chain [9]) [%] | FRET efficiency (OT-I TCR vβ5 chain [10]) [%] | FRET efficiency (P14 TCR vβ8 chain [11]) [%]
1 | OT-I TCR vα2 chain with N-terminal HA tag | 33.7 | 21 | 25 | 16 | 22.6 | 32.5 |  |  |  |  | 
2 | P14 TCR vα2 chain with two N-terminal myc tags |  | 19 | 12 | 10 | 23.3 | 12 | 27 | 35 | 26 | 28 | 27
